Biological target: HIV-1 BaL envelope glycoprotein (Env) trimer on AT-2 inactivated virions (HIV-1 (BaL))
Experiment: cryo-EM structure

anti-coreceptor binding site (CoRBS) antibody 17b (full IgG)
stoichiometry N (17b Abs per Env trimer): 3
